Test results taken from patent US20240409614A1 (DANMARKS TEKNISKE UNIVERSITET, published 2024).

Target: elastase (EnzChek Elastase Assay kit, Invitrogen)
Assay: cell-based or functional assay

| IC50 (anti-elastase activity), first determination | IC50 (anti-elastase activity), second determination | Binder |
| --- | --- | --- |
| 74.6 nM | 78.2 nM | A1AT-M351V/L353A/M358V (other) EDPQGDAAQKTDTSHHDQDHPTFNKITPNLAEFAFSLYRQLAHQSNSTNIFFSPVSIATAFAMLSLGTKADTHDEILEGLNFNLTEIPEAQIHEGFQELLRTLNQPDSQLQLTTGNGLFLSEGLKLVDKFLEDVKKLYHSEAFTVNFGDTEEAKKQINDYVEKGTQGKIVDLVKELDRDTVFALVNYIFFKGKWERPFEVKDTEEEDFHVDQVTTVKVPMMKRLGMFNIQHCKKLSSWVLLMKYLGNATAIFFLPDEGKLQHLENELTHDIITKFLENEDRRSASLHLPKLSITGTYDLKSVLGQLGITKVFSNGADLSGVTEEAPLKLSKAVHKAVLTIDEKGTEAAGAVFAEAIPVSIPPEVKFNKPFVFLMIEQNTKSPLFMGKVVNPTQK |
| 98.9 nM | 115 nM | A1AT-M351V/L353T/M358V (other) EDPQGDAAQKTDTSHHDQDHPTFNKITPNLAEFAFSLYRQLAHQSNSTNIFFSPVSIATAFAMLSLGTKADTHDEILEGLNFNLTEIPEAQIHEGFQELLRTLNQPDSQLQLTTGNGLFLSEGLKLVDKFLEDVKKLYHSEAFTVNFGDTEEAKKQINDYVEKGTQGKIVDLVKELDRDTVFALVNYIFFKGKWERPFEVKDTEEEDFHVDQVTTVKVPMMKRLGMFNIQHCKKLSSWVLLMKYLGNATAIFFLPDEGKLQHLENELTHDIITKFLENEDRRSASLHLPKLSITGTYDLKSVLGQLGITKVFSNGADLSGVTEEAPLKLSKAVHKAVLTIDEKGTEAAGAVFTEAIPVSIPPEVKFNKPFVFLMIEQNTKSPLFMGKVVNPTQK |
| 86.9 nM | 108 nM | A1AT-M351V/L353S/M358V (other) EDPQGDAAQKTDTSHHDQDHPTFNKITPNLAEFAFSLYRQLAHQSNSTNIFFSPVSIATAFAMLSLGTKADTHDEILEGLNFNLTEIPEAQIHEGFQELLRTLNQPDSQLQLTTGNGLFLSEGLKLVDKFLEDVKKLYHSEAFTVNFGDTEEAKKQINDYVEKGTQGKIVDLVKELDRDTVFALVNYIFFKGKWERPFEVKDTEEEDFHVDQVTTVKVPMMKRLGMFNIQHCKKLSSWVLLMKYLGNATAIFFLPDEGKLQHLENELTHDIITKFLENEDRRSASLHLPKLSITGTYDLKSVLGQLGITKVFSNGADLSGVTEEAPLKLSKAVHKAVLTIDEKGTEAAGAVFSEAIPVSIPPEVKFNKPFVFLMIEQNTKSPLFMGKVVNPTQK |
